Measured values as given in the supplement of paper PMC12042874.
± gives the uncertainty stated by the source.

Assay: amyloid nucleation score (Sup35N fusion, yeast selection) (log enrichment); library NNK2; higher = more nucleation; inactive = no reads after selection
In short: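 The nucleation score is a DiMSum log enrichment of output over input reads, centred on the mode score of non-aggregating sequences. Sequences under 100 input reads were excluded, and reads came from Illumina sequencing of plasmid inserts. Psi-negative yeast expressing Sup35N fused to peptides of 20 random codons were induced with 100 μM copper sulfate for 24 hours and grown 7 days at 30°C on medium lacking adenine and uracil. Random libraries had three technical output replicates.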

Row | Substance | amyloid nucleation score
1 | TLVHNFGCSLGHLKFRQNMW | -0.33 ± 1.1
2 | GFPRKSTDDLNILLNL | -1.47 ± 0.78
3 | LTLYSGVRCFSSYLP | 0.012 ± 0.41
4 | HKWKII | -1.55 ± 0.75
5 | TAHYLFTWTLSNVILVCGYD | -0.867 ± 0.48
6 | NTATSN | -0.22 ± 1.1
7 | LMCVLTIL | 1.25 ± 0.32
8 | SPDRPPSVVVVDRSGDVMVC | 1.57 ± 0.15
9 | RGLLLSTMRGHIDSLRLS | inactive
10 | YIELMGHWVGTSRKCVSDRS | -0.243 ± 1.1
11 | VQISWRFVPWI | 1.79 ± 0.12
12 | HWSYKDSLWVLDAAESVNMS | 0.622 ± 0.66
13 | WVNYFEGLMIPVSARN | -1.16 ± 0.76
14 | IYWTNLSRLKTGANRLRDKK | 0.177 ± 0.8
15 | IYCLRAGTKHSSLLGAKEDK | 0.594 ± 0.66
16 | IEIHALRPEQMFSVLGYGVQ | 0.146 ± 0.27
17 | GLWDSRMAFSRTS | 3.57 ± 0.078
18 | LLVDTNYSSQMASERFRTCG | -0.34 ± 0.37
19 | KKKYACRPAVRFLSIYCWFA | 0.406 ± 0.4
20 | TYFAEIMNTPLRPSARHEAR | 1.72 ± 0.33
21 | FDQVWRCVASLRPIVLSCSS | 0.322 ± 0.54
22 | MSRPSSYS | inactive
23 | SHCCFLG | 0.118 ± 0.51
24 | AVSFWSIF | 0.307 ± 0.64
25 | NHSMRFVLTMPILWKNQKAG | 0.228 ± 1

Row | Substance | amyloid nucleation score
26 | GSLMRFDSWLGGTIASS | 0.402 ± 0.66
27 | YSLFTT | -0.451 ± 0.76
28 | NCIRSNDRMMFPLCVTLSCS | 0.335 ± 0.39
29 | SRFIAWSFT | -0.038 ± 1.1
30 | KTTLVHFFVAREYLWRRMWG | 4.38 ± 0.084
31 | KGGWNKGEPMFFLVMCMYVN | 4.8 ± 0.054
32 | LYWKSGEHIWYLGSILGCVG | 0.593 ± 0.56
33 | ETFVYYFNVSSLVT | 0.11 ± 0.38
34 | NQVFSIALAQNRSRHFFLGG | inactive
35 | IMRVMPICRFVII | 1.25 ± 0.12
36 | VSPNPIWIVEKWPI | -1.63 ± 0.62
37 | STGMRGKYVTFFCSSVIFRQ | 7.2 ± 0.06
38 | RGYDLVGSIIFSMQKRLRKK | -1.24 ± 1.1
39 | NVVKTWPIYIMRPLWTAHSN | -0.641 ± 0.31
40 | AHPMEQCKIL | 0.545 ± 0.41
41 | LYEMDSKC | -0.603 ± 1.1
42 | RLFYYSSFYKDY | inactive
43 | RDPVFIT | -1.44 ± 0.76
44 | HSGMRMRPASSCSPKKP | 0.189 ± 0.49
45 | IHGVFCEFVRIIRNVGSAIR | -0.226 ± 0.35
46 | YKLYTFCKSRMHVPAYGFSY | -1.96 ± 1.1
47 | GRRDNMVRCKRLCRWRVWTA | 0.157 ± 0.55
48 | WLTYRCSVYYFYVEYWKSVY | 0.256 ± 0.74
49 | RLGRC | 0.94 ± 0.33
50 | YLSTGNNMFLNVQDSQGA | 1.36 ± 0.13

Row | Substance | amyloid nucleation score
51 | RILLRRAKFGSR | 0.432 ± 0.21
52 | GRPAAHAPSHPTRSVLGMS | 0.763 ± 0.47
53 | QYSTSV | -0.548 ± 0.61
54 | YGPYSLSSF | -0.105 ± 1.1
55 | ASNAFRSGYWQGERHERMRL | 1.07 ± 0.14
56 | LRGLCRVHWRSERAQSMRPG | 0.892 ± 0.45
57 | VSISKVFAAFVFLEPANTRI | 5.36 ± 0.097
58 | TGAGVNTGEFCWVDPRSDYQ | -0.161 ± 1.1
59 | CRLVEAEYSSRKRLQVSLWA | 0.102 ± 0.79
60 | IDNYFIRVKTFSDFMSSLDG | inactive
61 | KDAFT | -0.895 ± 0.49
62 | SSPKSWNILS | 0.106 ± 0.48
63 | KAGTGVVSANK | 0.644 ± 0.39
64 | WTKATPH | 0.12 ± 0.29
65 | ERILSFFF | inactive
66 | IPITSGIRRNCSSVRKDLGC | 0.123 ± 0.39
67 | RLLHYAFAFTARV | 3.15 ± 0.068
68 | LGDVYMWIFKKLLWVNHWDV | -0.033 ± 0.44
69 | FWRAFMLHWGNFLLMRALHE | inactive
70 | FYECNMSQVRDFPLHMYRYS | inactive
71 | NVLGQNAQPPNMDFYVTMIC | 0.508 ± 0.56
72 | PNSLYGYKIAFSLDFFVRVY | inactive
73 | HKGAARQPRPYMEAVIGPHP | 0.792 ± 0.27
74 | HHATKNFCTLFCLKSWGRFS | 7.767 ± 0.059
75 | FKNCDGRNIRSSHNPFNMVR | -0.857 ± 0.34

Row | Substance | amyloid nucleation score
76 | RSHPKMMSDICSV | 0.178 ± 0.65
77 | HGYSWVVI | 0.019 ± 0.19
78 | LFKMCTSVFRVCSAGMMELG | 0.35 ± 0.27
79 | CICLIMRTKTCELGSLLG | 5.781 ± 0.046
80 | CEDSCSSCNGILLDVREERS | 1.89 ± 0.076
81 | FYSLLCTFPSLLTDLLLVHR | -0.66 ± 0.26
82 | VFIRAGIVFQFWCNG | 7.22 ± 0.043
83 | AYEGFISYLIYLSIRNSSPC | inactive
84 | VLSEI | 0.607 ± 0.25
85 | SVYVANYGYPRSGLN | 7.02 ± 0.078
86 | KTCVPDYNNGWRFDFAYLD | -0.795 ± 0.45
87 | MYTAMSDSPFNVWRYGMSSY | -0.382 ± 0.29
88 | VDCTEV | 1.26 ± 0.26
89 | QVVDGWWGNYFIV | -1.92 ± 0.78
90 | MLFSRFRNICG | -0.08 ± 1
91 | RVLKFFYGLTRVVS | 1.23 ± 0.12
92 | ETGSRGAN | 0.263 ± 0.25
93 | ALATFVTPVAESA | 4.05 ± 0.05
94 | YPEDEFFQHRRWKRILSWDV | inactive
95 | SSFFLTQSKSFGYA | inactive
96 | RLINRSDEVYSFLFKRRGSK | inactive
97 | SYRRKYSCRLESINTCAVLC | -0.302 ± 0.47
98 | RIITGPGWTVAGSPVRGVRG | 1.68 ± 0.19
99 | TVRVGAIVNSTHLVGTNSAF | -0.314 ± 0.34
100 | TWQEAHNSQLGGFSIPEKN | 0.155 ± 1.1

Row | Substance | amyloid nucleation score
101 | CNLSSCGHSFINLSYEDLCQ | inactive
102 | TSVLA | -1 ± 1.1
103 | DKYITCVESWWPSILGGEKP | 1.87 ± 0.23
104 | KETTGWLRYIP | -0.56 ± 0.56
105 | SMQLDSFCVICGWFALVGLV | 6.67 ± 0.052
106 | IRYWLNERMVSDRRTVTGGV | 7.47 ± 0.077
107 | TLECW | 4.1 ± 0.049
108 | GRYNLLNKGNSAGVWCGLFS | -0.324 ± 1.1
109 | INVHSSSG | 0.344 ± 0.36
110 | CFWWNPGSILIRWCLKVLPG | -1.59 ± 0.54
111 | RHKYMIKVILRHFTFIIIGS | -0.05 ± 0.62
112 | LCDWCVLS | inactive
113 | SIFSKYCF | -0.464 ± 0.5
114 | IVSSSNFFKLMYCMFILRIS | 0.247 ± 1
115 | IWGLIAYLDSFNNFALDRRK | -1.03 ± 0.42
116 | VVSERRAFVRGVFDWIITLD | -0.02 ± 0.55
117 | VFMFMTQVSRKSYALPRTAA | 3.02 ± 0.12
118 | YPNLFS | 0.522 ± 0.74
119 | TKPNVW | -0.067 ± 0.8
120 | WRELKSQVDWRLDILSGSYR | 0.971 ± 0.26
121 | LLWPVA | 0.386 ± 0.46
122 | LRGYRGFPYCDLYFVCMLRN | -1.06 ± 1.1
123 | SSRYPVIWESFVPNWTNSHF | -1.22 ± 1.1
124 | SEYALYAFE | -0.173 ± 0.25
125 | VRGLFVLTVLEVS | -0.161 ± 1.1

Row | Substance | amyloid nucleation score
126 | PPGFMYLYCGLYAQSSRSSW | 0.546 ± 0.5
127 | GVDKKVSSTECIETVSCFIT | inactive
128 | AWDGIHTMMITYLKFIEKCQ | -1.31 ± 0.62
129 | THVNFW | inactive
130 | CKTHPKKNSGFWRKLKGCLG | 3.17 ± 0.15
131 | FIRSSIVWCC | 6.04 ± 0.077
132 | SMSSTSFSQWSMAWLEGRMA | 2.93 ± 0.078
133 | NTFWLGFPYSLLQALCHALD | 0.447 ± 0.53
134 | YKVLSISLIVDTFARLYYAL | -0.921 ± 0.54
135 | LSRRAINHFYNIITEVAGRG | inactive
136 | PSLRSSCCWNFRPP | 0.175 ± 0.42
137 | GATCTSCDRCIALVSGGRKR | 0.313 ± 0.44
138 | LPGMNTIILD | 2.17 ± 0.081
139 | LLFMKTFVVRP | 0.494 ± 0.26
140 | GYDLYLTEWRSVFTAVIANE | -0.055 ± 1.1
141 | NLYMFIRRAPDIIFCAHVYQ | 4.35 ± 0.051
142 | MPGKPWTGVVLKPRSESPAW | 0.057 ± 0.48
143 | LQAVPIIANCSSTRTANISL | inactive
144 | ASMYLNSSH | inactive
145 | DMAKGVLRSLFGTA | -0.154 ± 0.36
146 | IKGGRQAYNPTLGEVRGCAR | 2.93 ± 0.13
147 | LVMWNRCSIKRVNREMVHSF | 0.538 ± 0.3
148 | DQYYNH | 0.29 ± 0.77
149 | PRSNCLHCFLLPLSNIVLCA | 4.66 ± 0.049
150 | WLGTRWRRGWGRLLKREGIL | 1.79 ± 0.13

Row | Substance | amyloid nucleation score
151 | PQINMGVLAGGVYHYSTCGK | 0.196 ± 0.74
152 | SLFYPLFLMLGVAYEGSFSW | -1.1 ± 0.61
153 | WSHVYSV | -0.124 ± 0.76
154 | SSLHACA | 2.21 ± 0.29
155 | PWFMFPCRHRYRQYLWCFCA | 2.52 ± 0.068
156 | LGSLNNPA | 7.941 ± 0.077
157 | VDRESRFWWEGVQGFLDYWV | -0.614 ± 0.79
158 | FKKTLTGCYGGGRGAMNNGK | inactive
159 | GGELP | -0.719 ± 0.79
160 | RCGKCGLYS | 0.067 ± 0.5
161 | LLTLFG | -0.087 ± 0.56
162 | YFNSSVLILVVWLLY | inactive
163 | KYFVINPLIPIGQMEDIKLL | -0.156 ± 0.33
164 | RLYKSARVASHVDLGCTFRC | 1.35 ± 0.18
165 | IYRKSICYSFVWALFEVAEW | -0.398 ± 0.35
166 | VHLLGDFGLASQRRNECKLL | 0.477 ± 0.28
167 | WVSGLPHNYNSSFSTAINFS | 0.907 ± 0.3
168 | YQVFSQLEMRTYCKGKDFTL | 4.724 ± 0.038
169 | SSAGC | -1.23 ± 0.55
170 | CNKESFSMI | -0.791 ± 0.55
171 | GDPDQVYSFR | 0.034 ± 1.1
172 | QEFLWWGREQLGVCCLGVGR | 2.88 ± 0.14
173 | EFCSYDGCYFIASMAFVDTR | -0.393 ± 1.1
174 | QVLISFG | -2.41 ± 1.1
175 | SIPSCCWSLMGFNIIELDDG | 0.173 ± 1.1
